Substrate: OC[C@H]1O[C@@H](n2cnc3c(O)ncnc32)[C@H](O)[C@@H]1O
Experiment: HPLC of hypoxanthine formed, Michaelis-Menten fit
Type: biochemical, Agaricus bisporus
Conditions: phosphorolysis, potassium phosphate co-substrate (50 mM in the standard assay), pH 7.0, 60 °C, 0–16 mM inosine, b52 prints the unit as µmol

B1: AbPNP (Agaricus bisporus var. burnettii JB137-S8) (protein)
chain: MKTNILSTVEYIRSQLPPELQQPRVGIVCGSGLSGLAGIIQNIHTIPYANIPGFGTSTVPGHRSELAFGLLGKNGVPVVAMLGRFHFYEGHPLSTVVYPIRVMARLGITEILITNAAGSLNPDIPTGTIVVVHDHIAFPGMAGTNPLMGPQTSPEHPRFLALSDAYSPSLRRLLFLAAHQLSLSKSALAEGTYAWVSGPNYETPAEGILLRSIGVDVVGMSTVPEVLVAREEGLKVMVLSLVTNLVVIPPSYKSIREEVEAELAGQSFVTPEEQVVSHDEVLAVGKEKAEVIKSLVQRVVELLS
notes: N-terminal 6xHis tag; codon-optimized gene in pPIC9K, Pichia pastoris GS115, Ni-NTA purified
B1 showed a Km of 7.10 µM and a kcat of 14.38 s⁻¹.
